Measured values reported in patent publication US7939292B2, “Modified heparinase III and methods of sequencing therewith” (Massachusetts Institute of Technology, priority 2000, dated 2011).

Assays:
B16BL6 melanoma = assay: Primary tumor growth of B16BL6 melanoma in mice treated with heparinases; type: in vivo
Description: Heparinases I and III, which have very distinct substrate specificities for cleaving HLGAGs, were employed as tools to investigate the role of HLGAGs in tumor growth and metastasis. While heparinase I cleaves at the highly sulfated regions of HLGAGs, heparinase III only cleaves at the under-sulfated regions of the polysaccharide chain, thereby rendering these enzymes powerful tools to investigate in vivo and in vitro roles of HLGAGs, in development, morphogenesis, angiogenesis etc. To examine the roles of HLGAGs in tumor growth and metastasis, we used B16BL6 melanoma as a model system and treated tumor-bearing mice with either heparinases I or III to investigate both primary tumor growth as well as tumor metastasis. Consistent with the current paradigm, heparinase I accelerated tumor growth (FIG. 8). At a dosage of 0.5 mg/kg/day of heparinase I, tumor growth was increased by about 39%. […] Inhibition of primary tumor growth by heparinase III was first observed at 2 mg/kg per day. Tumor growth was inhibited by 73% at 12 mg/kg per day, the maximum dosage tested in the study (FIG. 8).
Mice, 15 days after tumor implantation with B16BL6 melanoma, were examined. 4×10^5 log growth phase B16BL6 melanoma cells in 0.1 ml PBS were injected to the flank of C57BL/6 mice on day 1. Daily injection of 0.1 ml of PBS, heat inactivated hep III or active heparinase III (2 mg/ml, recombinantly expressed, purified, buffer exchanged with PBS, and concentrated) started at the day 4 and continued throughout the experiment. At day 7, osmotic pumps (100 μl capacity delivering at 0.5 μl per hour) containing PBS or 3 mg/ml hep III were implanted subcutaneously at a place remote from the tumor site. Mice were sacrificed at day 15.
FIG. 8 depicts the tumor volume of the tumors isolated from the mice described above. Tumor volume was measured daily after day 7 with a caliper and calculated with the formula [volume=0.52×(width)^2×(length)].

[1] = SAX-HPLC analysis of exhaustive heparan sulfate digests; type: biochemical; details: SAX-HPLC, overnight 37° C.
Experimental: Exhaustive digests of 3 mg/ml heparan sulfate in 50 mM sodium phosphate buffer, pH 7.6 were performed overnight at 37° C. for each of the mutants (20 μg protein). The reactions were loaded onto a Spherisorb S5 SAX column (Waters) and eluted using a linear gradient of 0.2-1.0 M NaCl, pH 3.5. The products were monitored at 232 nm and each of the major peaks was collected. To determine their composition, the collected fractions were analyzed by capillary electrophoresis and identified by comigration with known standards.
As a control, the r-heparinase III construct without its putative signal sequence was expressed. The concentration and purity of all recombinant enzyme preparations were determined using SDS-PAGE. The recombinantly expressed heparinase III was also compared to the heparinase III isolated from F. heparinum to ensure that they were the same molecular weight. Heparinase III (20 μg/mL) was incubated with a 4 mg/mL of heparan sulfate overnight at 37° C. The reaction was loaded onto a SAX column and the saccharide products were eluted using a gradient of 0.2-1.0 M NaCl, pH 3.5 over 30 min. and monitored at 232 nm. (A) Heparan sulfate digested with heparinase III from F. heparinum. (B) Heparan sulfate digested with recombinant heparinase III. (C) Heparan sulfate digested with the H295A mutant enzyme. (D) Heparan sulfate digested with the H510A mutant enzyme. (E) Heparan sulfate digested with the H105A mutant enzyme.

[2] = Heparinase III kinetic assay of r-heparinase III and histidine mutants; type: biochemical; details: for kcat / Km: heparan sulfate; for Km: calculated assuming a molecular weight of 15 kDa
Experimental: The activity of heparinase III was measured using a UV 232 nm assay similar to those reported for heparinase I and heparinase II (Godavarti, R., Cooney, C. L., Langer, R., and Sasisekharan, R. (1996) Biochemistry 35, 6846-52; Shriver, Z., Hu, Y., and Sasisekharan, R. (1998) J. Biol. Chem. 273, 10160-67; and Lohse, D. and Linhardt, R. J. (1992) J. Biol. Chem. 267, 781-87). Briefly, the increase in absorbance at 232 nm as a function of time was monitored under saturating substrate conditions. All assays were performed with heparan sulfate at a concentration of 2 mg/ml in 50 mM sodium phosphate, pH 7.6. The temperature for enzymatic activity measurements was kept constant at 35° C.
In parallel to the mapping studies and to confirm the results of the chemical modification experiments, each of the thirteen histidine residues present in heparinase III was mutated to alanine. The recombinant heparinase III mutant proteins were expressed, purified, and assessed for enzymatic activity towards heparan sulfate (Table 2).

B1: heat inactivated heparinase III: heat inactivated heparinase III used as control (protein, UniProt Q59289 25-659, looked up)
Heparin-sulfate lyase: QSSSITRKDFDHINLEYSGLEKVNKAVAAGNYDDAAKALLAYYREKSKAREPDFSNAEKPADIRQPIDKVTREMADKALVHQFQPHKGYGYFDYGKDINWQMWPVKDNEVRWQLHRVKWWQAMALVYHATGDEKYAREWVYQYSDWARKNPLGLSQDNDKFVWRPLEVSDRVQSLPPTFSLFVNSPAFTPAFLMEFLNSYHQQADYLSTHYAEQGNHRLFEAQRNLFAGVSFPEFKDSPRWRQTGISVLNTEIKKQVYADGMQFELSPIYHVAAIDIFLKAYGSAKRVNLEKEFPQSYVQTVENMIMALISISLPDYNTPMFGDSWITDKNFRMAQFASWARVFPANQAIKYFATDGKQGKAPNFLSKALSNAGFYTFRSGWDKNATVMVLKASPPGEFHAQPDNGTFELFIKGRNFTPDAGVFVYSGDEAIMKLRNWYRQTRIHSTLTLDNQNMVITKARQNKWETGNNLDVLTYTNPSYPNLDHQRSVLFINKKYFLVIDRAIGEATGNLGVHWQLKEDSNPVFDKTKNRVYTTYRDGNNLMIQSLNADRTSLNEEEGKVSYVYNKELKRPAFVFEKPKKNAGTQNFVSIVYPYDGQKAPEISIRENKGNDFEKGKLNLTLTINGKQQLVLVP
modifications: heat inactivated
Q: For B1, which “tumor mass upon visual inspection compared with active Hep III” value (B16BL6 melanoma; day 15) is on record?
A: Its value is “significantly larger tumor masses”.

Q: And the “tumor growth curves compared with PBS treated mice” value (B16BL6 melanoma; mouse, in vivo)?
A: The value was “comparable growth curves”.

B2: H105A: recombinant heparinase III with histidine 105 mutated to alanine (protein)
chain: MTTKIFKRIIVFAVIALSSGNILAQSSSITRKDFDHINLEYSGLEKVNKAVAAGNYDDAAKALLAYYREKSKAREPDFSNAEKPADIRQPIDKVTREMADKALVAQFQPHKGYGYFDYGKDINWQMWPVKDNEVRWQLHRVKWWQAMALVYHATGDEKYAREWVYQYSDWARKNPLGLSQDNDKFVWRPLEVSDRVQSLPPTFSLFVNSPAFTPAFLMEFLNSYHQQADYLSTHYAEQGNHRLFEAQRNLFAGVSFPEFKDSPRWRQTGISVLNTEIKKQVYADGMQFELSPIYHVAAIDIFLKAYGSAKRVNLEKEFPQSYVQTVENMIMALISISLPDYNTPMFGDSWITDKNFRMAQFASWARVFPANQAIKYFATDGKQGKAPNFLSKALSNAGFYTFRSGWDKNATVMVLKASPPGEFHAQPDNGTFELFIKGRNFTPDAGVFVYSGDEAIMKLRNWYRQTRIHSTLTLDNQNMVITKARQNKWETGNNLDVLTYTNPSYPNLDHQRSVLFINKKYFLVIDRAIGEATGNLGVHWQLKEDSNPVFDKTKNRVYTTYRDGNNLMIQSLNADRTSLNEEEGKVSYVYNKELKRPAFVFEKPKKNAGTQNFVSIVYPYDGQKAPEISIRENKGNDFEKGKLNLTLTINGKQQLVLVP
Q: With B2 as the molecule, how does the “catalytic activity in overnight heparan sulfate digests” value [1] read?
A: The value was “retain their catalytic activity”.

B3: H424A: recombinant heparinase III with histidine 424 mutated to alanine (protein)
chain: MTTKIFKRIIVFAVIALSSGNILAQSSSITRKDFDHINLEYSGLEKVNKAVAAGNYDDAAKALLAYYREKSKAREPDFSNAEKPADIRQPIDKVTREMADKALVHQFQPHKGYGYFDYGKDINWQMWPVKDNEVRWQLHRVKWWQAMALVYHATGDEKYAREWVYQYSDWARKNPLGLSQDNDKFVWRPLEVSDRVQSLPPTFSLFVNSPAFTPAFLMEFLNSYHQQADYLSTHYAEQGNHRLFEAQRNLFAGVSFPEFKDSPRWRQTGISVLNTEIKKQVYADGMQFELSPIYHVAAIDIFLKAYGSAKRVNLEKEFPQSYVQTVENMIMALISISLPDYNTPMFGDSWITDKNFRMAQFASWARVFPANQAIKYFATDGKQGKAPNFLSKALSNAGFYTFRSGWDKNATVMVLKASPPGEFAAQPDNGTFELFIKGRNFTPDAGVFVYSGDEAIMKLRNWYRQTRIHSTLTLDNQNMVITKARQNKWETGNNLDVLTYTNPSYPNLDHQRSVLFINKKYFLVIDRAIGEATGNLGVHWQLKEDSNPVFDKTKNRVYTTYRDGNNLMIQSLNADRTSLNEEEGKVSYVYNKELKRPAFVFEKPKKNAGTQNFVSIVYPYDGQKAPEISIRENKGNDFEKGKLNLTLTINGKQQLVLVP
Q: Which “changes in recombinant protein yield, enzyme activity, or kinetic parameters compared with r-heparinase III” value [2] does the source give for B3 here?
A: Its value is “no significant changes”.

Q: What about the kcat [2] of the same molecule?
A: The kcat was 24 s⁻¹.

Q: What about the Km [2] of the same molecule?
A: The Km was 59 µM.

B4: H241A: recombinant heparinase III with histidine 241 mutated to alanine (protein)
chain: MTTKIFKRIIVFAVIALSSGNILAQSSSITRKDFDHINLEYSGLEKVNKAVAAGNYDDAAKALLAYYREKSKAREPDFSNAEKPADIRQPIDKVTREMADKALVHQFQPHKGYGYFDYGKDINWQMWPVKDNEVRWQLHRVKWWQAMALVYHATGDEKYAREWVYQYSDWARKNPLGLSQDNDKFVWRPLEVSDRVQSLPPTFSLFVNSPAFTPAFLMEFLNSYHQQADYLSTHYAEQGNARLFEAQRNLFAGVSFPEFKDSPRWRQTGISVLNTEIKKQVYADGMQFELSPIYHVAAIDIFLKAYGSAKRVNLEKEFPQSYVQTVENMIMALISISLPDYNTPMFGDSWITDKNFRMAQFASWARVFPANQAIKYFATDGKQGKAPNFLSKALSNAGFYTFRSGWDKNATVMVLKASPPGEFHAQPDNGTFELFIKGRNFTPDAGVFVYSGDEAIMKLRNWYRQTRIHSTLTLDNQNMVITKARQNKWETGNNLDVLTYTNPSYPNLDHQRSVLFINKKYFLVIDRAIGEATGNLGVHWQLKEDSNPVFDKTKNRVYTTYRDGNNLMIQSLNADRTSLNEEEGKVSYVYNKELKRPAFVFEKPKKNAGTQNFVSIVYPYDGQKAPEISIRENKGNDFEKGKLNLTLTINGKQQLVLVP
Q: Which results are given for B4?
A: changes in recombinant protein yield, enzyme activity, or kinetic parameters compared with r-heparinase III [2]: no significant changes; kcat [2]: 5 s⁻¹; Km [2]: 16 µM

B5: H469A: recombinant heparinase III with histidine 469 mutated to alanine (protein)
chain: MTTKIFKRIIVFAVIALSSGNILAQSSSITRKDFDHINLEYSGLEKVNKAVAAGNYDDAAKALLAYYREKSKAREPDFSNAEKPADIRQPIDKVTREMADKALVHQFQPHKGYGYFDYGKDINWQMWPVKDNEVRWQLHRVKWWQAMALVYHATGDEKYAREWVYQYSDWARKNPLGLSQDNDKFVWRPLEVSDRVQSLPPTFSLFVNSPAFTPAFLMEFLNSYHQQADYLSTHYAEQGNHRLFEAQRNLFAGVSFPEFKDSPRWRQTGISVLNTEIKKQVYADGMQFELSPIYHVAAIDIFLKAYGSAKRVNLEKEFPQSYVQTVENMIMALISISLPDYNTPMFGDSWITDKNFRMAQFASWARVFPANQAIKYFATDGKQGKAPNFLSKALSNAGFYTFRSGWDKNATVMVLKASPPGEFHAQPDNGTFELFIKGRNFTPDAGVFVYSGDEAIMKLRNWYRQTRIASTLTLDNQNMVITKARQNKWETGNNLDVLTYTNPSYPNLDHQRSVLFINKKYFLVIDRAIGEATGNLGVHWQLKEDSNPVFDKTKNRVYTTYRDGNNLMIQSLNADRTSLNEEEGKVSYVYNKELKRPAFVFEKPKKNAGTQNFVSIVYPYDGQKAPEISIRENKGNDFEKGKLNLTLTINGKQQLVLVP
Q: With B5 as the molecule, how does the “changes in recombinant protein yield, enzyme activity, or kinetic parameters compared with r-heparinase III” value [2] read?
A: The value was “no significant changes”.

Q: What about the kcat [2] of the same molecule?
A: The kcat was 100 s⁻¹.

Q: And the Km [2]?
A: The Km was 71 µM.
